From patent publication US20180327503A1 (RINAT NEUROSCIENCE, published 2018)
Changes are numbered by the printed parent chain.

T1: Human IL-7R-hFc antigen (R&D systems) (human, UniProt P16871 21-239)
T1 construct: Bought from R&D Systems; not shown: human Fc (hFc) of the bought fusion
T1 sequence (looked up): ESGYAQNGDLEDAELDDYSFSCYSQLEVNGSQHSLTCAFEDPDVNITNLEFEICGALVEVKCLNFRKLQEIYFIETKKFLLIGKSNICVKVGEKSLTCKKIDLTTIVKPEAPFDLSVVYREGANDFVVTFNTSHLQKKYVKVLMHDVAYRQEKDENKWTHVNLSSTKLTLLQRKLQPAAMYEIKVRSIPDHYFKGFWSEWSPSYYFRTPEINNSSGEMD

T2: human IL-7R on human peripheral blood mononuclear cells (CD4+ gated) (human, UniProt P16871 21-459)
T2 sequence (looked up): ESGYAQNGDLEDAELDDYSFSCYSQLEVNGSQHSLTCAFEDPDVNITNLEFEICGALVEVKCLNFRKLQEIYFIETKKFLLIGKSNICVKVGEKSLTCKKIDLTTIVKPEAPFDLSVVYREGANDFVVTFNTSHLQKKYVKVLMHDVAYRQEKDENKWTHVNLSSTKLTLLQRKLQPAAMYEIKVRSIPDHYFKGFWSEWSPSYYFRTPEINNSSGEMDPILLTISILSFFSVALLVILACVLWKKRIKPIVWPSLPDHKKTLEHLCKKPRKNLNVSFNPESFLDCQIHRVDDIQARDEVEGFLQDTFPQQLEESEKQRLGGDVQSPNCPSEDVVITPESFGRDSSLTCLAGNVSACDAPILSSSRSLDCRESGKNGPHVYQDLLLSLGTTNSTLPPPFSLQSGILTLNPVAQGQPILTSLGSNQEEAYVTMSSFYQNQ

B1: HAL403a Fab (Fab, V domains shown)
VH: QVNLRESGGGLVKPGGSLRLSCAASGFTFDDSVMHWVRQAPGKGLEWLSLVGWDGFFTYYADSVKGRFTISRDNTKNLLYLQMNSLRAEDTAVYYCARQGDYMGNNWGQGTLVTVSS
VL: NFMLTQPHSVSGSPGKTVTISCTRSSGSIDSSYVQWYQQRPGNSPTTVIYEDDQRPSGVPDRFSGSIDSSSNSASLTISGLVTEDEADYYCQSYDFHHLVFGGGTKLTVLC
B2: HAL403b Fab (Fab, V domains shown)
VH: B1 VH
VL: B1 VL with Q92M, S93Q
B3: P2D2 Fab (Fab, V domains shown)
VH: B1 VH with M103V, G104F
VL: B1 VL with Q92M, S93Q, F96S, H97S
B4: P2E11 Fab (Fab, V domains shown)
VH: B1 VH with N105D, N106Y
VL: B1 VL
B5: P3A9 Fab (Fab, V domains shown)
VH: B1 VH with F56S, F57A, M103V, G104F, N105D, N106Y
VL: B1 VL with F96S, H97S
B6: C2M3 (hIgG1) (antibody, V domains shown)
VH: B1 VH with Q1E, N3Q, R5V, L48V, T75A, L78S
VL: NFMLTQPHSVSESPGKTVTISCTRSSGSIDSSYVQWYQQRPGSSPTTVIYEDDQRPSGVPDRFSGSIDSSSNSASLTISGLKTEDEADYYCMQYDFHHLVFGGGTKLTVL
notes: Only variable domains are tied to C2M3
B7: C1GM Fab (Fab, V domains shown)
VH: B1 VH with Q1E, N3Q, R5V, L48V, T75A, L78S
VL: B6 VL with M92Q, Q93S
B8: C1GM (hIgG1) (antibody)
heavy: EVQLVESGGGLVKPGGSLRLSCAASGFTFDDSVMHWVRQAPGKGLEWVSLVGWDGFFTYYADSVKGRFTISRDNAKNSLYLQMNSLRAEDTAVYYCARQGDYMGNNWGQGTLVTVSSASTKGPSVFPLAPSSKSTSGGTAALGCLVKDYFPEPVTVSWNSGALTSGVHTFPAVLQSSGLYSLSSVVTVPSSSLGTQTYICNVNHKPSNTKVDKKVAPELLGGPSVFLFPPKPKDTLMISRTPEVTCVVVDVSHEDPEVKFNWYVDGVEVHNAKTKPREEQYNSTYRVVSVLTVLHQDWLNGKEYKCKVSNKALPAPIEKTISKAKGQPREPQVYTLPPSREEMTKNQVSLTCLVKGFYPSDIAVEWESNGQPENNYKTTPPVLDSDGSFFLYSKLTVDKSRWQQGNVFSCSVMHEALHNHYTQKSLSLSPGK
light: NFMLTQPHSVSESPGKTVTISCTRSSGSIDSSYVQWYQQRPGSSPTTVIYEDDQRPSGVPDRFSGSIDSSSNSASLTISGLKTEDEADYYCQSYDFHHLVFGGGTKLTVLQPKAAPSVTLFPPSSEELQANKATLVCLISDFYPGAVTVAWKADSSPVKAGVETTTPSKQSNNKYAASSYLSLTPEQWKSHRSYSCQVTHEGSTVEKTVAPTECS
B9: C1GM-2 (hIgG2ΔA) (antibody)
heavy: EVQLVESGGGLVKPGGSLRLSCAASGFTFDDSVMHWVRQAPGKGLEWVSLVGWDGFFTYYADSVKGRFTISRDNAKNSLYLQMNSLRAEDTAVYYCARQGDYMGNNWGQGTLVTVSSASTKGPSVFPLAPCSRSTSESTAALGCLVKDYFPEPVTVSWNSGALTSGVHTFPAVLQSSGLYSLSSVVTVPSSNFGTQTYTCNVDHKPSNTKVDKTVAPPVAGPSVFLFPPKPKDTLMISRTPEVTCVVVDVSHEDPEVQFNWYVDGVEVHNAKTKPREEQFNSTFRVVSVLTVVHQDWLNGKEYKCKVSNKGLPSSIEKTISKTKGQPREPQVYTLPPSREEMTKNQVSLTCLVKGFYPSDIAVEWESNGQPENNYKTTPPMLDSDGSFFLYSKLTVDKSRWQQGNVFSCSVMHEALHNHYTQKSLSLSPGK
light: B8 light
notes: the footnote is printed with **)
B10: C2M3 (hIgG2ΔA) (antibody, V domains shown)
VH: B1 VH with Q1E, N3Q, R5V, L48V, T75A, L78S
VL: B6 VL
notes: the footnote is printed with **); Only variable domains are tied to C2M3
B11: P4B3 Fab (Fab, V domains shown)
VH: QVTLKESGGGLVQPGGSLRLSCAASGFTFSNYGMHWVRQAPGKGLEWVSAISGSGGSTYYADSVKGRFTISRDNSKNTVYLQMNSLRDEDTAVYYCARDISGGGMDVWGQGTTVTVSS
VL: NFMLTQPHSVSESPGKTVTISCTGSSGRIASSYVQWYQQRPGSAPTTVIYEDNQRPSGVPDRFSGSIDSSSNSASLTISGLKTEDEADYYCQSYASSSLWVFGGGTQLTVLS
B12: P2D2 (antagonist IL-7R fully human monoclonal antibody, format not stated) (antibody, V domains shown)
VH: B1 VH with M103V, G104F
VL: B1 VL with Q92M, S93Q, F96S, H97S
B13: P2E11 (antagonist IL-7R fully human monoclonal antibody, format not stated) (antibody, V domains shown)
VH: B1 VH with N105D, N106Y
VL: B1 VL

Each binder was assayed against T1, Human IL-7R-hFc antigen (R&D systems) (assay: SPR (Biacore 2000/3000), IL-7R-hFc captured on anti-human Fc, antibody as analyte).
Method: The affinities of antagonist IL-7R antibodies to human IL-7R were measured on a surface plasmon resonance Biacore™ 2000 or 3000 biosensor equipped with a research-grade CM5 sensor chip (Biacore™ AB, Uppsala, Sweden—now GE Healthcare). Goat polyclonal anti-human F(ab′)2 fragments (Fc specific) were amine-coupled at saturating levels onto all four flow cells using a standard N-hydroxysuccinimide/ethyldimethylaminopropyl carbodiimide (NHS/EDC) chemistry in HBS-P running buffer (from Biacore™). The buffer was switched to HBS-P containing 1 mg/mL BSA. Human IL-7R-hFc antigen (R&D systems, Minneapolis, USA) was diluted to about 30 μg/mL and captured for 3 min at 5 μL/min to give levels of about 500-1000 RU per flow cell, leaving one blank to serve as a reference channel. Fab, hIgG1, or hIgG2ΔA formats of the antibodies were injected in duplicates as a 5-membered 3-fold series starting at 2 μM and a 5-membered 4-fold series starting at 0.4 μM for 3 min at 20-50 μL/min. Dissociation was monitored for 5 min. The capture chip was regenerated after the last injection of each titration with two 30 sec pulses of 75 mM phosphoric acid or 10 mM Glycine-HCl pH 1.7. Buffer cycles provided blanks for double-referencing the binding response data, which were then fit globally to a simple reversible binding model using Biaevaluation software v.4.1 to deduce the kinetic association and dissociation rate constants, respectively kₐ and kd. Affinities were deduced from their ratio (KD=kd/kₐ).

Question: Which results are given for B1?
Answer: Kd: 0.06 nM; koff: 0.000286 s⁻¹; kon: 5.07e+06 M⁻¹ s⁻¹

Question: Which results are given for B2?
Answer: Kd: 0.06 nM; koff: 8.08e-05 s⁻¹; kon: 1.39e+06 M⁻¹ s⁻¹

Question: Which results are given for B3?
Answer: Kd: 12 nM; koff: 0.000882 s⁻¹; kon: 71700 M⁻¹ s⁻¹

Question: What does the source list for B4?
Answer: Kd: 3 nM; koff: 0.000497 s⁻¹; kon: 155000 M⁻¹ s⁻¹

Question: B5 was tested. Which Kd did it give?
Answer: 204 nM

Question: What about the koff of the same binder?
Answer: 0.0114 s⁻¹

Question: And the kon?
Answer: 56000 M⁻¹ s⁻¹

Question: Which Kd does the source give for B6 here?
Answer: 0.218 nM

Question: And the koff?
Answer: 0.000307 s⁻¹

Question: What about the kon of the same binder?
Answer: 1.41e+06 M⁻¹ s⁻¹

Question: What does the source list for B7?
Answer: Kd: 0.04 nM; koff: 0.000171 s⁻¹; kon: 4.85e+06 M⁻¹ s⁻¹

Question: What does the source list for B8?
Answer: Kd: 0.286 nM; koff: 0.000405 s⁻¹; kon: 1.42e+06 M⁻¹ s⁻¹

Question: What does the source list for B9?
Answer: Kd: 0.27 nM; koff: 0.000407 s⁻¹; kon: 1.51e+06 M⁻¹ s⁻¹

Question: For B10, which Kd is on record?
Answer: 0.195 nM

Question: And the koff?
Answer: 0.000302 s⁻¹

Question: What about the kon of the same binder?
Answer: 1.55e+06 M⁻¹ s⁻¹

Question: B11 was tested. Which Kd did it give?
Answer: 225 nM

Question: And the koff?
Answer: 0.00351 s⁻¹

Question: And the kon?
Answer: 15600 M⁻¹ s⁻¹

What follows are binders tested against T2, human IL-7R on human peripheral blood … (assay: cell-based or functional assay).

Question: How did the “IC50 (read off the curve)” value turn out when B12 was run?
Answer: ~0.1 µg/mL

Question: How did the “IC50 (read off the curve)” value turn out when B13 was run?
Answer: ~0.04 µg/mL
